According to US20250243282A1 (TRUEBINDING, published 2025):
Positions count from the first letter of the chain named.

B1: mIMT001 (antibody, mouse IgG2a, V domains shown)
VH: QIQLVQSGPELKKPGETVKISCKASGYTFTNYGMNWVKQAPGKGLKWMGWINTNTGEPTYVEEFKGRFAFSLETSASTAYLQINNLKNEDTATYFCAPYDNFFAYWGQGTLVTVSA
VL: DIVITQDELSNPVTSGESVSISCRSSKSLLYKDGKTYLNWFLQRPGQSPQLLIYLMSTHASGVSDRFSGSGSGTDFTLEISRVKAEDVGVYYCQQLVDYPLTFGAGTKLELKR
notes: also called murine IMT1; mIMT1
B2: 847.21B11 (antibody, V domains shown)
VH: QVQLKQSGPGLVAPSQSLSITCTVSGFSLTSYGVHWVRQPPGKGLEWLGIIWAGGSTNYNPALMSRLSISKDKSKSQVFLKMNSLKTDDTAMYYCARDRASLLRPGAMDYWGQGTSVTVSS
VL: DIVMTQSQKFMSTSVGDRVSVTCKASQNVGINVAWYQQKPGQSPKALIYSASYRYSGVPDRFTGSGSGTDFTLTISNVQSEDLAEYFCQQYNSYPYTFGGGTKLEMK
B3: 847.4D3 (antibody, V domains shown)
VH: EVQLVESGGGLVKPGGSLKLSCAASGFTFSSYAMSWVRQTPEKRLEWVASISSGDSPYYPDSVKGRFTISRDNARNILYLQMSSLRSEDTAMYYCTRFTTVVEMDYWGQGTSVTVSS
VL: DVVMTQTPKFLPITAEDRVTITCKASQSVSNEVAWYQQKPGQSPKLLIYYASNRYTGVPDRFTGSGSGTDFTFTIRSVQLEDLAVYFCQQHYSSPWTFGGGTKLEIK
B4: recombinant human CD147, 6xHis-tagged (R&D Systems, 972-EMN) (receptor, not shown: small tags and cut ends)
chain: AAGTVFTTVEDLGSKILLTCSLNDSATEVTGHRWLKGGVVLKEDALPGQKTEFKVDSDDQWGEYSCVFLPEPMGTANIQLHGPPRVKAVKSSEHINEGETAMLVCKSESVPPVTDWAWYKITDSEDKALMNGSESRFFVSSSQGRSELHIENLNMEADPGQYRCNGTSSKGSDQAIITLRVRSHLAAL
notes: also called hCD147; EMMPRIN
B5: 2D10.2B2 (antibody, mouse IgG2a, V domains shown)
VH: QVQLQQSGPELVKPGASVKISCKASGYTFTDYYINWVKQRPGQGLEWIGWIYPGSNDTKYNEKFKGKATLTVDTSSSTAYMQLGSLTSEDSAVYFCANYFGCSGWFFDVWGTGTTVTVSS
VL: DIVMTQAAFSNPVTLGTSASISCRSSKSLLHSDGITYLYWYLQRPGQSPQLLIYRMSNLASGVPDRFSGSGSGTDFTLRISRVEAEDVGVYYCAQMIEFPLTFGAGTILELKR
B6: 6H6.2D6 (antibody, human IgG4 S228P, kappa, V domains shown)
VH: QIQLVQSGPELKKPGETVKISCKASGYTFTTYGMSWVKQAPGKGLKWMAWINTYSGVPTYADDFKGRFAFSLETSASTAYLQINNLTNEDTATYFCARGPYAMDYWGQGTSVTVSS
VL: DIQMTQTTSSLSASLGDRVTISCSASQGISNYLNWYQQKPDGTVKLLIYYTSSLHSGVPSRFSGSGSGTDYSLTISNLEPEDIATYYCQQYSELPYTFGSGTKLEIKR
B7: 849.4F12 (antibody, V domains shown)
VH: QVQLKESGPGILQPSQTLSLTCSFSGFSLSTFGMGVGWIRQPSGKGLEWLAHIWWDDDKHYNPALKSRLTISKDTSKNQVFLRIANVDTADNATYYCARIDYGDYVGFAYWGQGTLVTVSA
VL: DILLTQSPSSMSVSLGDTVSITCHASQGINSNIGWLQQKPGKSFKGLIYHGTNLEDGVPSRFSGSGSGADYSLTISSLESEDFADYYCVQYDQFPWTFGGGTKLEIK
B8: 846T.4C9 (antibody, V domains shown)
VH: EVQLQQSGPELVKPGASVKMSCKASGYSFTNYIMHWVKQKPGQGLEWIGYINPYNDGTKYNEKFKGKATLTSDKSSSTAYMELSSLTSEDSAVYYCARLLFYYAMDYWGQGTSVTVSS
VL: B7 VL with L4M, S7T, N30S, G41R, H50Y
B9: 846.2B11 (antibody, human IgG4 S228P, kappa, V domains shown)
VH: QVQLQQSGPELVRPGALVKISCKASGYTFTSYDINWVKQRPGQGLEWIGWIYPGDGSTKYNEKFKGKATLTADKSSSTAYMQLSSLTSENSAVYFCAREAASNAMDYWGQGTSVTVSS
VL: DIVLTQSPASLGVSLGQRATISCRASKSVSTSGYSYMHWYQQKPGQPPKLLIYLASILESGVPARFSGSGSGTDFTLNIHPVEEEDAAIYYCQHSRELPLTFGAGTKLELKR
B10: TB001 (antibody, human IgG4 S228P, kappa, V domains shown)
VH: QVQLVQSGSELKKPGASVKVSCKASGYTFTNYGMNWVRQAPGQGLKWMGWINTNTGEPTYVEEFTGRFVFSLETSVSTAYLQISSLKAEDTAVYFCAPYDNFFAYWGQGTTVTVSS
VL: DIVLTQSPLSLPVTPGEPASISCRSSKSLLYKDGKTYLNWFLQKPGQSPQLLIYLMSTHASGVPDRFSGSGSGTDFTLKISRVEAEDVGVYYCQQLVDYPLTFGGGTKLEIKR
B11: 24D12.2H9 (antibody, human IgG4 S228P, kappa, V domains shown)
VH: QVQLKQSGPGLVQPSQSLSITCTVSGFSLTSYGVHWVRQAPGKGLEWLGVIWSGGSTDYNAAFMSRLSISKDNSKSQVFFKMNSLQADDTAIYYCAKSPDGYDVAWFGYWGQGTLVTVSA
VL: DIVMTQSHKFMSTSVGDRVSITCKASQDVRTAVAWYQQKPGQSPKLLIYWASTRHTGVPDRFTGSGSGTDFTLTLSNVQSEDLADYFCQQYSSYPWTFGGGTKLEIKR
B12: 847.15F9 (antibody, V domains shown)
VH: QVQMKQSGPGLVQPSQSLSITCTVSGFSLINYGVHWVRQSPGKGLEWLGVIWSGGSTDYNAAFISRLSISKDNSKSQVFFKMNSLQADDTAIYYCARIYYYGRGYAMDYWGQGTSVTVSS
VL: QIVLSQSPAILSASPGEKVTMTCRASSSVTYMYWYQQKPGSSPQPWIYATSNLASGVPARFSGSGSGTSYSLTISRVEAEDAATYYCQQWSSNPLTFGAGTKLELK
B13: 847.2B8 (antibody, V domains shown)
VH: B12 VH with M4L
VL: B12 VL with V3L
B14: 849.4B2 (antibody, V domains shown)
VH: DGKLQESGPGLVKPSQSLSLTCSVTGYSITSGYYWNWIRQFPGNKLEWMGHISYDGRNNYNPSLKNRISITRDTSKNQFFLKLNSVTTEDTATYYCAGYDFLWYFDVWGTGTTVTVSS
VL: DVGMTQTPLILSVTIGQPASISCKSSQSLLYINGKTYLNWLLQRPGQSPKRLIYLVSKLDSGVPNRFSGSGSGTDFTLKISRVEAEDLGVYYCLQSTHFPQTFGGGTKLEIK

What was measured:
[1] = molecular target: T1, human Gal3 protein (recombinant human Galectin-3) (human, UniProt P17931 2-250)
T1 construct: also called hGal3; hGAL3
T1 sequence (P17931 2-250 limits assumed): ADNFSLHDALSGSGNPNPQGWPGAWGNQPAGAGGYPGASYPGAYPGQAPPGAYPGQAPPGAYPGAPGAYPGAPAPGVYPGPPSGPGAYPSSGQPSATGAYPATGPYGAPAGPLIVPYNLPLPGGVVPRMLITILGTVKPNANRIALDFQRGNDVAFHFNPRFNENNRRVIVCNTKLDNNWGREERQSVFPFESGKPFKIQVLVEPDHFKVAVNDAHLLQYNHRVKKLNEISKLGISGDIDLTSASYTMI

[2] = molecular target: T2, Recombinant human Gal3 (rhGal3) (TrueBinding, #QC200361) (human, UniProt P17931 2-250); experiment: cell-based or functional assay
[3] = molecular target: T1, human Gal3 protein (recombinant human …); experiment: SPR (Carterra LSA), antibody immobilised on HC200M chip, hGal3 injected
[4] = molecular target: T2, Recombinant human Gal3 (rhGal3) …; experiment: cell-based or functional assay; remark: listed apart in the source
[5] = molecular target: T1, human Gal3 protein (recombinant human …); experiment: ELISA, hGal3 coated, receptor in solution
[6] = molecular target: T2, Recombinant human Gal3 (rhGal3) …; experiment: cell-based or functional assay; remark: listed apart in the source
Wherever % inhibition of CD62L shedding is given: test concentration or dose not given here.
Wherever % inhibition of IL-6 secretion is given: test concentration or dose not given here.
Wherever % inhibition of TNFα secretion is given: test concentration or dose not given here.

| Binder | % blocking [1] [%] | % inhibition of IL-6 secretion [2] [%] | % inhibition of TNFα secretion [2] [%] | binding result [3] | % inhibition of CD62L shedding [4] [%] | binding result [5] | IC50 of blocking IL-6 secretion by HL60-derived neutrophils (rhGal3 + LPS) [6] [nM] | IC50 of blocking TNFα secretion by HL60-derived neutrophils (rhGal3 + LPS) [6] [nM] |
| --- | --- | --- | --- | --- | --- | --- | --- | --- |
| B1 | > 95 | – | – | – | – | – | – | – |
| B2 | – | 27.3 | -136 | no binding | 16.4 | – | – | – |
| B3 | – | – | – | no binding | 7.5 | – | – | – |
| B4 | – | – | – | – | – | binds | – | – |
| B5 | > 95 | – | – | – | – | – | – | – |
| B6 | > 95 | – | – | – | – | – | – | – |
| B7 | – | 1.2 | -81.5 | no binding | 17.9 | – | – | – |
| B8 | – | -38.3 | -299 | no binding | 11.2 | – | – | – |
| B9 | – | -0.5 | -98 | no binding | 8.2 | – | – | – |
| B10 | – | 45.6 | 81.4 | – | 87.2 | – | 509 | 393 |
| B11 | 55 | 22.3 | 46.5 | – | 73.1 | – | – | – |
| B12 | – | 16.6 | -178 | no binding | 8.5 | – | – | – |
| B13 | – | – | – | no binding | 7 | – | – | – |
| B14 | – | -9.8 | -162 | no binding | 6.2 | – | – | – |
